Consider five molecules from paper PMC6965139, “Crystal structures of fukutin-related protein (FKRP), a ribitol-phosphate transferase related to muscular dystrophy” (Nature Communications, 2020).

Substitutions are numbered along the chain they refer to.

The target of series [1] is T1, sFKRP (secreted type, His/Myc, WT) (Homo sapiens, UniProt Q9H9S5).
T1 construct: gene FKRP; Asn33 to C-terminus in ss1-His/Myc-pcDNA3.1; secreted from HEK293T; immunoprecipitated on anti-c-Myc agarose; tags kept
T1 sequence (Q9H9S5 33-495): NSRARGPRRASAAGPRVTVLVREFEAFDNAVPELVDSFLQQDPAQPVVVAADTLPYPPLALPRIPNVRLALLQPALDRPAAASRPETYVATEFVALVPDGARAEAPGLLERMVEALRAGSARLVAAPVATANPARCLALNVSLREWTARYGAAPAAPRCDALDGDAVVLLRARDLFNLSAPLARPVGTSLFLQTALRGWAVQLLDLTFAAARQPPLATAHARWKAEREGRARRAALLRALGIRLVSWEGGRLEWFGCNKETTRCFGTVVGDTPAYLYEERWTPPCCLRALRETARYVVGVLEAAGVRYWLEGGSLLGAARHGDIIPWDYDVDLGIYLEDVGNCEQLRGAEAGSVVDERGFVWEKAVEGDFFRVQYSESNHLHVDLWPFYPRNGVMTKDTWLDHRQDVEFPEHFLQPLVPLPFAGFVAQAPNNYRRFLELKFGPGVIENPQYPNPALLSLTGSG
In words: ribitol-phosphate transfer, HPLC and MALDI-TOF MS. The format is biochemical. The conditions noted are these: 200 uM CDP-Rbo, 40 uM RboP-(phospho-)core M3 peptide, 10 mM MnCl2 and MgCl2, pH 6.5, 310 K; enzyme on anti-Myc agarose.

The target of series [2] is secreted type of FKRP Tyr88Phe mutant (Asn33 to the C-terminus, His/Myc) (human) (UniProt Q9H9S5).
The target in series [3] is secreted type of FKRP Leu276Ile mutant (Asn33 to the C-terminus, His/Myc) (human) (UniProt Q9H9S5).
Series [4] deals with secreted type of FKRP Ser221Arg mutant (Asn33 to the C-terminus, His/Myc) (human) (UniProt Q9H9S5).
Series [5] concerns the molecule itself. In words: crystal structure; sFKRP without substrates, Mg2+ and Ba2+ bound forms; four subunits in the asymmetrical unit; hanging-drop vapor diffusion at 293 K, PEG 4000, HEPES-NaOH pH 7.5; interfaces judged with ePISA.

As for `Nc1ccn([C@@H]2O[C@H](COP(=O)(O)OP(=O)(O)OC[C@@H](O)[C@@H](O)[C@@H](O)CO)[C@@H](O)[C@H]2O)c(=O)n1` [CDP-Rbo], the “ribitol-phosphate transfer, HPLC and MALDI-TOF MS” value in series [1] is “Enzymatic activity of sFKRP with CDP-Rbo and the RboP-(phospho-)core M3 peptide”.

B1: secreted type of FKRP Tyr88Phe mutant (Asn33 to the C-terminus, His/Myc) (enzyme)
chain: T1 sequence (Q9H9S5 33-495) with Y56F
In series [2], B1 had a glycosyltransferase activity with CDP-Rbo and the RboP-(phospho-)core M3 peptide, relative to the wild-type enzyme (% of the wild-type enzyme) of 20.

B2: secreted type of FKRP Leu276Ile mutant (Asn33 to the C-terminus, His/Myc) (enzyme)
chain: T1 sequence (Q9H9S5 33-495) with L244I
B2 returned a glycosyltransferase activity with CDP-Rbo and the RboP-(phospho-)core M3 peptide, relative to the wild-type enzyme (% of the wild-type enzyme) in series [3] of 50.

B3: secreted type of FKRP Ser221Arg mutant (Asn33 to the C-terminus, His/Myc) (enzyme)
chain: T1 sequence (Q9H9S5 33-495) with S189R
In series [4], B3 returned a glycosyltransferase activity with CDP-Rbo and the RboP-(phospho-)core M3 peptide, relative to the wild-type enzyme (% of the wild-type enzyme) of 5.

B4: soluble form of fukutin-related protein (sFKRP, residues 45 to C-terminus) (enzyme, human, UniProt Q9H9S5 45-495, looked up)
chain: AGPRVTVLVREFEAFDNAVPELVDSFLQQDPAQPVVVAADTLPYPPLALPRIPNVRLALLQPALDRPAAASRPETYVATEFVALVPDGARAEAPGLLERMVEALRAGSARLVAAPVATANPARCLALNVSLREWTARYGAAPAAPRCDALDGDAVVLLRARDLFNLSAPLARPVGTSLFLQTALRGWAVQLLDLTFAAARQPPLATAHARWKAEREGRARRAALLRALGIRLVSWEGGRLEWFGCNKETTRCFGTVVGDTPAYLYEERWTPPCCLRALRETARYVVGVLEAAGVRYWLEGGSLLGAARHGDIIPWDYDVDLGIYLEDVGNCEQLRGAEAGSVVDERGFVWEKAVEGDFFRVQYSESNHLHVDLWPFYPRNGVMTKDTWLDHRQDVEFPEHFLQPLVPLPFAGFVAQAPNNYRRFLELKFGPGVIENPQYPNPALLSLTGSG
notes: fukutin-related protein (FKRP), human, residues 45 to C-terminus, 451 amino acid residues in total; stem domain 45-287, catalytic domain 288-495; Sugar chains were removed by Endo H glycosidase before the last gel filtration; also called lumenal region of human FKRP; not shown: protein A, N-terminal, cleaved
By stoichiometry N is commonly meant a count of units in the complex or per binding partner. B4: the “stoichiometry N” value in series [5] turned out to be 4.
